Measurements taken from US6548060 (dated 2003).

B2: N-terminal 236 aa extension of human glutaminyl-tRNA synthetase (other, UniProt P47897 1-236, looked up)
chain: MAALDSLSLFTSLGLSEQKARETLKNSALSAQLREAATQAQQTLGSTIDKATGILLYGLASRLRDTRRLSFLVSYIASKKIHTEPQLSAALEYVRSHPLDPIDTVDFERECGVGVIVTPEQIEEAVEAAINRHRPQLLVERYHFNMGLLMGEARAVLKWADGKMIKNEVDMQVLHLLGPKLEADLEKKFKVAKARLEETDRRTAKDVVENGETADQTLSLMEQLRGEALKFHKPGE
notes: range 1-236; LexA fusion in yeast two-hybrid; GST fusion (pGEX4T-2), purified, in the in vitro pull-down; Myc-tagged from pcDNA3 in 293 cells for co-IP; also called QRS-N; LexA-QRS-N

Columns and labels:
[1] = molecular target: B2; assay: in vitro pull-down, purified His-Daxx-C with GST-QRS-N on GST resin, Coomassie-stained gel (FIG. 2B)
Description: (§1) Figure 2: FIG. 2. Interaction of QRS-N and Daxx-C. A. (upper panel) The interaction of QRS and Daxx was mapped by yeast two hybrid analysis. The full-length (F), N-terminal 236 aa (N) and C-terminal 539 aa (C) peptides of QRS, and the full-length ASK1 were fused to LexA (DNA-binding protein). […] The pairs of LexA and B42 hybrid proteins were expressed in a yeast tester strain and the positive interactions were determined by the formation of blue colonies as described previously (8). […] Daxx-C and QRS-N were expressed as His (pET28a, Novagen) and GST (pGEX4T-2, Amersham Pharmacia Biotech) fusion proteins, respectively and purified following the manufacturer's instructions. The purified His-Daxx-C (5 ug) was mixed with GST or GST-QRS-N (5 ug) at 4° C. for 30 min in 20 mM sodium phosphate buffer, pH 7.8, containing 500 mM NaCl. The GST proteins were precipitated with the GST resin (10 ul) and the precipitated proteins were eluted and resolved by 12% SDS-polyacrylamide gel electrophoresis and stained with Coomasie blue. Figure 2:
The interaction between the Daxx-C and QRS-N was confirmed by in vitro pull down experiment. Daxx-C and QRS-N were expressed as His and GST fusion proteins, respectively. The purified two fusion proteins were then mixed and precipitated with the GST resin. Daxx-C was co-precipitated with QRS-N, confirming the direct interaction between the two molecules (FIG. 2B).

[2] = molecular target: T1, N-terminal 610 aa peptide of Daxx (human, UniProt Q9UER7 1-610); assay: yeast two-hybrid (FIG. 2A lower panel)
T1 construct: range 1-610; Yeast two-hybrid construct; 610 aa overlaps Daxx-C (604-740) by a few residues as printed; also called Daxx-N
Description: as §1, with “Interaction” for “Figure 2: FIG. 2. Interaction”
(§2) Human Daxx was originally identified to be associated to Fas to mediate apoptotic signal ( 10) to its downstream kinase, ASK1 (11). The activation of ASK1 then results in activation of Jun N-terminal kinase (JNK) and p38 for cellular apoptosis (12). The interaction between QRS and Daxx was further refined by yeast two hybrid analysis. […]

[3] = molecular target: T2, human glutaminyl-tRNA synthetase, full-length (human, UniProt P47897 1-775); assay: yeast two-hybrid (FIG. 2A)
T2 construct: range 1-775; Fused to LexA in the yeast two-hybrid assay (pEG202); also called QRS; QRS-F
T2 sequence (looked up): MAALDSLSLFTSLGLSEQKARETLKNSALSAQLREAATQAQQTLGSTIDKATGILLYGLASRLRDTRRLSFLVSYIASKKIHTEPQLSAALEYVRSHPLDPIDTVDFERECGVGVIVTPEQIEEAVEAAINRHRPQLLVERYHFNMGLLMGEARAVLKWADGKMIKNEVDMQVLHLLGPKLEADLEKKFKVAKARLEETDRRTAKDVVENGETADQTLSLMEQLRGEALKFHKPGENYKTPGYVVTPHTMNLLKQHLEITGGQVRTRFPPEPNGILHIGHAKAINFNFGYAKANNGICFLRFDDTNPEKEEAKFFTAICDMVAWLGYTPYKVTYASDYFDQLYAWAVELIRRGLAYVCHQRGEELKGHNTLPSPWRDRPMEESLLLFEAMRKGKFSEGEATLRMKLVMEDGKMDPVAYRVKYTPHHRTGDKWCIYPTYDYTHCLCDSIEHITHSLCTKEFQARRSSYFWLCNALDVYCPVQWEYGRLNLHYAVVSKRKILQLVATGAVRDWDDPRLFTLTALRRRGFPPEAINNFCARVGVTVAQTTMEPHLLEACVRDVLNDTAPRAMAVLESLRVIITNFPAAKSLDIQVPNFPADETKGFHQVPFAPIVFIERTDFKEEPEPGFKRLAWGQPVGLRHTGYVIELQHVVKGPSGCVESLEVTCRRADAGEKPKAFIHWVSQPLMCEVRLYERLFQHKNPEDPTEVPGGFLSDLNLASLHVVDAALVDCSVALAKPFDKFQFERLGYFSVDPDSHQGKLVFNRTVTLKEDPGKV
Description: as §1, §2

human Daxx, full-length = molecular target: T3, human Daxx, full-length (human, UniProt Q9UER7 1-740); assay: summary of the experiments in the legend of FIG. 1
T3 construct: range 1-740; Expressed from pcDNA3 in 293 cells for co-IP; also called B42-Daxx; pcDNA3-Daxx

[4] = molecular target: T4, ASK1 (apoptosis signal-regulating kinase), full-length (UniProt Q99683 1-1374, limits assumed); assay: co-immunoprecipitation with anti-HA antibody from 293 cells (FIG. 3A)
T4 construct: Full-length; LexA fusion in yeast two-hybrid; HA-tagged (pcDNA3-HA-ASK1, gift of Dr. Ichijo) in 293 cells for co-IP and the MBP kinase assay; Flag-tagged in the GST-SEK1 kinase assay; also called ASK1-F; HA-ASK1
T4 sequence (looked up): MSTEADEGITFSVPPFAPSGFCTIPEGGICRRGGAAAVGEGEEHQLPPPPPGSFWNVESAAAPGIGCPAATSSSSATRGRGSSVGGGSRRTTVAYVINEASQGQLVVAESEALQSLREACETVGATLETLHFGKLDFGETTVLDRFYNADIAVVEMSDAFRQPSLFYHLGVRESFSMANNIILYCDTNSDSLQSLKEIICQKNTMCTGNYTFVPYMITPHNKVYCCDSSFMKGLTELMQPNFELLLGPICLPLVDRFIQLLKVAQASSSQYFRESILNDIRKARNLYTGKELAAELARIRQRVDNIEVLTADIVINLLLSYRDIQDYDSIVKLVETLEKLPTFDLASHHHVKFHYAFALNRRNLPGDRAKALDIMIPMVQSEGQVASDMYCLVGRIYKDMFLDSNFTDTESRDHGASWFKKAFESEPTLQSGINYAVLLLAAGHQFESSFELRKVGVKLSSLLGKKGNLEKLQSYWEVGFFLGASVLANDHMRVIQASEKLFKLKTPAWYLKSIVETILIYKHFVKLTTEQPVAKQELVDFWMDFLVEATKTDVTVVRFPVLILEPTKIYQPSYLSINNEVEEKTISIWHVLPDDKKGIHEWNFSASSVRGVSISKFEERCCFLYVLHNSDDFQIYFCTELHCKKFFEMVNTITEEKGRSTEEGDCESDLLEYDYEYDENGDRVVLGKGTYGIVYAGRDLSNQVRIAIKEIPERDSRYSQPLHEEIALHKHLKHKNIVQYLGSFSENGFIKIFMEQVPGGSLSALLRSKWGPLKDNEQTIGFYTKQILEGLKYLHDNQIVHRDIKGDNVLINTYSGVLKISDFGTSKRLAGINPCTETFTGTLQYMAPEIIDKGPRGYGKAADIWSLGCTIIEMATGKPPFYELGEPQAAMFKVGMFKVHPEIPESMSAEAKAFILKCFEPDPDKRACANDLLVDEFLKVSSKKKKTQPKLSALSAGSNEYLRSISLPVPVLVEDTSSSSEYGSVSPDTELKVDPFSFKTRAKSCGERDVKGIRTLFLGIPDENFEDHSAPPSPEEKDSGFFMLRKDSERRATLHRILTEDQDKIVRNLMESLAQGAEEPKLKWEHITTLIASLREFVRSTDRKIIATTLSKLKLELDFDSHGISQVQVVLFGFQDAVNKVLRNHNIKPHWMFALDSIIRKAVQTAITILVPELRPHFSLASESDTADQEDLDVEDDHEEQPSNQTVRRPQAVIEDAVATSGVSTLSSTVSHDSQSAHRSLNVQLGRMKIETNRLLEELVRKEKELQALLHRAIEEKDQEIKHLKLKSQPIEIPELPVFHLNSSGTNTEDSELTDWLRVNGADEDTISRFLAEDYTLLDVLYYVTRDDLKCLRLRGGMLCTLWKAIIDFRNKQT
Description: Figure 3: FIG. 3. Interaction of QRS-C and ASK1-N. A. The cDNA (4 ug each) encoding QRS-F. -N or -C (Myc tagged) cloned in pcDNA3 was transfected into 293 cells in 100-mm dishes with 0.5 ug pcDNA3-HA-ASK1 (a kind gift of Dr. Ichijo, Tokyo university, Japan). Co-immunoprecipitation between HA-ASK1 and QRS was carried out as described previously (11) using anti-HA antibody (Santa Cruz). The precipitated proteins were resolved in 10% SDS-polyacrylamide gel, and the presence of QRS-F and -N, and -C were detected by immunoblotting with anti-QRS (17) and Myc (9E10, Boehringer Mannheim) antibodies, respectively. -B. pcDNA3-QRS-F (4 ug) was co-transfected into 293 cells with pcDNA3-HA-ASK1-F (full length) or -N (N-terminal 649 aa) (4 ug each). The cells were harvested after 24 hrs and the ASK1 peptides were precipitated with anti-HA antibody and co-precipitation of QRS was determined by immunoblotting with anti-QRS antibody. […]
Since ASK1 is the immediate downstream kinase of Daxx, we tested whether QRS also interacts with ASK1. The interaction of the two proteins was determined by co-immunoprecipitation. […] Since the N-terminal 649 aa peptide was previously determined to be a regulatory domain interacting with Daxx, (FIG. 1), we tested whether QRS interacts with ASK1-N or -C. […]

T1 sequence (Q9UER7 1-610 limits assumed): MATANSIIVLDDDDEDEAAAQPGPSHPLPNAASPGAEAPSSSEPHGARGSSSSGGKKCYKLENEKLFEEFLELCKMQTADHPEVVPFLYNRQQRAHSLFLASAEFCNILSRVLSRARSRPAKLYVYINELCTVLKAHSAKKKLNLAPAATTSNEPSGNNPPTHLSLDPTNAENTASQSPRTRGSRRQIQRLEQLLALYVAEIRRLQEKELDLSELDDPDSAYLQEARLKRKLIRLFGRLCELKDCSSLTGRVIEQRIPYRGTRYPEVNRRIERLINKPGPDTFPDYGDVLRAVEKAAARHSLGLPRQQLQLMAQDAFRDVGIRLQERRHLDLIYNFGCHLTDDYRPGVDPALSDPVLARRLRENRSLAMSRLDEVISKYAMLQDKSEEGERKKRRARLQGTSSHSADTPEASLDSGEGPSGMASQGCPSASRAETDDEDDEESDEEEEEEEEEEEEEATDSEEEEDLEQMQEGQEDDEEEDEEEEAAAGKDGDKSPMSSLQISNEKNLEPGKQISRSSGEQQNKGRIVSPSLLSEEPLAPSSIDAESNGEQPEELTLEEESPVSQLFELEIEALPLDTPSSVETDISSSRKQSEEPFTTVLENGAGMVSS

B1: C-terminal 137 aa peptide of human Daxx (G604-D740) (other, UniProt Q9UER7 604-740, looked up)
chain: GAGMVSSTSFNGGVSPHNWGDSGPPCKKSRKEKKQTGSGPLGNSYVERQRSVHEKNGKKICTLPSPPSPLASLAPVADSSTRVDSPSHGLVTSSLCIPSPARLSQTPHSQPPRPGTCKTSVATQCDPEEIIVLSDSD
notes: range 604-740; B42 fusion in yeast two-hybrid; His fusion (pET28a), purified, in the in vitro pull-down; also called Daxx-C; B42-Daxx-C
B1: binds [1]; binds [2]; binds [3].

B2: binds (human Daxx, full-length); no binding [4].
